According to US10253076B2, “Peptides and combination of peptides for use in immunotherapy against ovarian cancer and other cancers” (immatics biotechnologies GmbH, priority 2015, dated 2019):

Columns and labels:
[1] = molecular target: HLA-A*02:01 (Homo sapiens, UniProt P04439, D140Y/D185E/D98H/E176V/E277Q/G131W/G231S/I119V/I121R/I166T/I218V/L300P/L318F/N151K/N90K/P208A/P217A/Q86G/Q94H/R138H/R169H/T345S); test: MHC binding assay (UV-ligand exchange, beta2m ELISA, peptide exchange yield); settings: binding of HLA-class I restricted peptides to HLA-A*02:01, ranged by peptide exchange yield (UV-ligand exchange, β2m ELISA)
Outline: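 Peptide–HLA-A*02:01 complexes made by UV-mediated exchange of a photocleavable peptide with the test peptide. Exchange products diluted 100-fold on streptavidin-coated plates, 1 h at 37°C, then HRP anti-β2m 1 h at 37°C; TMB read at 450 nm to give exchange yield.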

[2] = test system: CD8+ T cells; test: In vitro immunogenicity: T-cell priming with aAPCs loaded with peptide/MHC and anti-CD28, pMHC multimer readout; type: cell-based, human; settings: for Wells positive [%]: HLA-A*02 restricted peptides; for wells: percentage of positive wells
Description: In an aspect, the peptides are pre-screened for immunogenicity before being included in the warehouse. By way of example, and not limitation, the immunogenicity of the peptides included in the warehouse is determined by a method comprising in vitro T-cell priming through repeated stimulations of CD8+ T cells from healthy donors with artificial antigen presenting cells loaded with peptide/MHC complexes and anti-CD28 antibody.
In order to obtain information regarding the immunogenicity of the TUMAPs of the present invention, the inventors performed investigations using an in vitro T-cell priming assay based on repeated stimulations of CD8+ T cells with artificial antigen presenting cells (aAPCs) loaded with peptide/MHC complexes and anti-CD28 antibody.
In order to perform in vitro stimulations by artificial antigen presenting cells loaded with peptide-MHC complex (pMHC) and anti-CD28 antibody, the inventors first isolated CD8+ T cells from fresh HLA-A*02 leukapheresis products via positive selection using CD8 microbeads (Miltenyi Biotec, Bergisch-Gladbach, Germany) of healthy donors obtained from the University clinics Mannheim, Germany, after informed consent.
PBMCs and isolated CD8+ lymphocytes were incubated in T-cell medium (TCM) until use consisting of RPMI-Glutamax (Invitrogen, Karlsruhe, Germany) supplemented with 10% heat inactivated human AB serum (PAN-Biotech, Aidenbach, Germany), 100 U/ml Penicillin/100 μg/ml Streptomycin (Cambrex, Cologne, Germany), 1 mM sodium pyruvate (CC Pro, Oberdorla, Germany), 20 μg/ml Gentamycin (Cambrex). 2.5 ng/ml IL-7 (PromoCell, Heidelberg, Germany) and 10 U/ml IL-2 (Novartis Pharma, Nürnberg, Germany) were also added to the TCM at this step.
Generation of pMHC/anti-CD28 coated beads, T-cell stimulations and readout was performed in a highly defined in vitro system using four different pMHC molecules per stimulation condition and 8 different pMHC molecules per readout condition.
The purified co-stimulatory mouse IgG2a anti human CD28 Ab 9.3 (Jung et al., 1987) was chemically biotinylated using Sulfo-N-hydroxysuccinimidobiotin as recommended by the manufacturer (Perbio, Bonn, Germany). Beads used were 5.6 μm diameter streptavidin coated polystyrene particles (Bangs Laboratories, Illinois, USA).
pMHC used for positive and negative control stimulations were A*0201/MLA-001 (peptide […] (SEQ ID NO. 664) from modified Melan-A/MART-1) and A*0201/DDX5-001 ([…] from DDX5, SEQ ID NO. 665), respectively.
800.000 beads/200 μl were coated in 96-well plates in the presence of 4×12.5 ng different biotin-pMHC, washed and 600 ng biotin anti-CD28 were added subsequently in a volume of 200 μl. Stimulations were initiated in 96-well plates by co-incubating […] CD8+ T cells with 2×10^5 washed coated beads in 200 μl TCM supplemented with 5 ng/ml IL-12 (PromoCell) for 3 days at 37° C. Half of the medium was then exchanged by fresh TCM supplemented with 80 U/ml IL-2 and incubating was continued for 4 days at 37° C. This stimulation cycle was performed for a total of three times. For the pMHC multimer readout using 8 different pMHC molecules per condition, a two-dimensional combinatorial coding approach was used as previously described (Andersen et al., 2012) with minor modifications encompassing coupling to 5 different fluorochromes. Finally, multimeric analyses were performed by staining the cells with Live/dead near IR dye (Invitrogen, Karlsruhe, Germany), CD8-FITC antibody clone SK1 (BD, Heidelberg, Germany) and fluorescent pMHC multimers. For analysis, a BD LSRII SORP cytometer equipped with appropriate lasers and filters was used. Peptide specific cells were calculated as percentage of total CD8+ cells. Evaluation of multimeric analysis was done using the FlowJo software (Tree Star, Oregon, USA). In vitro priming of specific multimer+ CD8+ lymphocytes was detected by comparing to negative control stimulations. […]

| Substance | Peptide exchange [1] | Wells positive [%] [2] | other results |
| --- | --- | --- | --- |
| 2 (SLLEADPFL; listed as Homo sapiens) [compound 2] | ″+++″ (≥50% = +++) | ″+″ (<20% = +) | – |
| 3 (SLASKLTTL; listed as Homo sapiens) [compound 3] | ″++++″ (≥75% = ++++) | ″+″ (<20% = +) | – |
| 8 (FTLGNVVGMYL; listed as Homo sapiens) [compound 8] | ″++++″ (≥75% = ++++) | ″+″ (<20% = +) | – |
| 11 (KIFEMLEGV; listed as Homo sapiens) [compound 11] | ″+++″ (≥50% = +++) | ″+″ (<20% = +) | – |
| 36 (YVLEDLEVTV; listed as Homo sapiens) [compound 36] | ″++″ (≥20% = ++) | ″+″ (<20% = +) | – |
| 38 (FLLEDDIHVS; listed as Homo sapiens) [compound 38] | ″+++″ (≥50% = +++) | ″+″ (<20% = +) | – |
| 48 (ALAELYEDEV; listed as Homo sapiens) [compound 48] | ″+++″ (≥50% = +++) | ″+″ (<20% = +) | – |
| 56 (KLYEGIPVLL; listed as Homo sapiens) [compound 56] | ″++++″ (≥75% = ++++) | ″+″ (<20% = +) | – |
| 60 (SLTIDGIYYV; listed as Homo sapiens) [compound 60] | ″++++″ (≥75% = ++++) | ″++++″ (> = 70% = ++++) | – |
| 79 (SLFIGEKAVLL; listed as Homo sapiens) [compound 79] | ″+++″ (≥50% = +++) | ″+″ (<20% = +) | – |
| 113 (GLLPTPLFGV; listed as Homo sapiens) [compound 113] | ″+++″ (≥50% = +++) | ″+″ (<20% = +) | – |
| 118 (KLIDNNINV; listed as Homo sapiens) [compound 118] | ″+++″ (≥50% = +++) | ″+″ (<20% = +) | – |
| 141 (YLDFSNNRL; listed as Homo sapiens) [compound 141] | ″++″ (≥20% = ++) | ″+″ (<20% = +) | – |
| 143 (LLLDITPEI; listed as Homo sapiens) [compound 143] | ″++++″ (≥75% = ++++) | ″+″ (<20% = +) | – |
| 150 (RLWEEGEELEL; listed as Homo sapiens) [compound 150] | ″+++″ (≥50% = +++) | ″+″ (<20% = +) | – |
| 166 (YLNHLEPPV; listed as Homo sapiens) [compound 166] | ″+++″ (≥50% = +++) | ″++++″ (> = 70% = ++++) | – |
| 593 (GLPRFGIEMV; listed as Homo sapiens) [compound 593] | ″+++″ (≥50% = +++) | – | – |
| 594 (IMLKGDNITL; listed as Homo sapiens) [compound 594] | ″+++″ (≥50% = +++) | – | – |
| 595 (VLLSIYPRV; listed as Homo sapiens) [compound 595] | ″+++″ (≥50% = +++) | – | – |
| 596 (ALLDQTKTLAESAL; listed as Homo sapiens) [compound 596] | ″+++″ (≥50% = +++) | – | – |
| 597 (KLLEGQVIQL; listed as Homo sapiens) [compound 597] | ″+++″ (≥50% = +++) | – | – |
| 598 (FLFPHSVLV; listed as Homo sapiens) [compound 598] | ″+++″ (≥50% = +++) | – | – |
| 599 (YLLNDASLISV; listed as Homo sapiens) [compound 599] | ″+++″ (≥50% = +++) | – | – |
| 600 (ALAAPDIVPAL; listed as Homo sapiens) [compound 600] | ″+++″ (≥50% = +++) | – | – |
| 601 (SAFPFPVTV; listed as Homo sapiens) [compound 601] | ″+++″ (≥50% = +++) | – | – |
| 602 (YLLEQIKLIEV; listed as Homo sapiens) [compound 602] | ″++++″ (≥75% = ++++) | – | – |

| Substance | Peptide exchange [1] | Wells positive [%] [2] | other results |
| --- | --- | --- | --- |
| 604 (SILDRDDIFV; listed as Homo sapiens) [compound 604] | ″+++″ (≥50% = +++) | – | – |
| 605 (KLYEAVPQL; listed as Homo sapiens) [compound 605] | ″+++″ (≥50% = +++) | – | – |
| 606 (ALWETEVYI; listed as Homo sapiens) [compound 606] | ″+++″ (≥50% = +++) | – | – |
| 607 (RLYSGISGLEL; listed as Homo sapiens) [compound 607] | ″+++″ (≥50% = +++) | – | – |
| 608 (SLLSVSHAL; listed as Homo sapiens) [compound 608] | ″+++″ (≥50% = +++) | – | – |
| 609 (ALWKQLLEL; listed as Homo sapiens) [compound 609] | ″+++″ (≥50% = +++) | – | – |
| 610 (LLAPTPYIIGV; listed as Homo sapiens) [compound 610] | ″+++″ (≥50% = +++) | – | – |
| 611 (YLLDDGTLVV; listed as Homo sapiens) [compound 611] | ″++++″ (≥75% = ++++) | – | – |
| 612 (YLYNEGLSV; listed as Homo sapiens) [compound 612] | ″+++″ (≥50% = +++) | – | – |
| 613 (RLLPPGAVVAV; listed as Homo sapiens) [compound 613] | ″+++″ (≥50% = +++) | – | – |
| 614 (LLLPDQPPYHL; listed as Homo sapiens) [compound 614] | ″+++″ (≥50% = +++) | – | – |
| 615 (VLPPDTDPA; listed as Homo sapiens) [compound 615] | ″++″ (≥20% = ++) | – | – |
| 616 (VLIDEVESL; listed as Homo sapiens) [compound 616] | ″+++″ (≥50% = +++) | – | – |
| 617 (ALMYESEKVGV; listed as Homo sapiens) [compound 617] | ″+++″ (≥50% = +++) | – | – |
| 618 (VLFDSESIGIYV; listed as Homo sapiens) [compound 618] | ″+++″ (≥50% = +++) | – | – |
| 619 (ALQDRVPLA; listed as Homo sapiens) [compound 619] | ″+++″ (≥50% = +++) | – | – |
| 620 (KLLNKIYEA; listed as Homo sapiens) [compound 620] | ″++++″ (≥75% = ++++) | – | – |
| 621 (VLMDRLPSLL; listed as Homo sapiens) [compound 621] | ″++++″ (≥75% = ++++) | – | – |
| 622 (RLLGEEVVRVLQA; listed as Homo sapiens) [compound 622] | ″+++″ (≥50% = +++) | – | – |
| 623 (YLVEDIQHI; listed as Homo sapiens) [compound 623] | ″+++″ (≥50% = +++) | – | – |
| 635 (SLDSTLHAV; listed as Homo sapiens) [compound 635] | ″+++″ (≥50% = +++) | – | – |
| 652 (TLWYRAPEV; listed as Homo sapiens) [compound 652] | – | – | donors ([2]; HLA class I peptides, percentage of positive donors): ++++ (> = 70% = ++++) |
| 659 (ILFPDIIARA; listed as Homo sapiens) [compound 659] | – | – | wells ([2]; HLA class I peptides): + (<20% = +) |
| 662 (KIQEILTQV; listed as Homo sapiens) [compound 662] | – | – | wells ([2]; HLA class I peptides): + (<20% = +) |
| 663 (KIQEMQHFL; listed as Homo sapiens) [compound 663] | – | – | wells ([2]; HLA class I peptides): + (<20% = +) |
